Results as given in US20240174744A1 (SCIRHOM, published 2024).

Biological target: T1, dog iRhom2 full length wild type, C-terminally tagged with 3 consecutive copies of the T7 epitope (dog, UniProt Q00M95 1-827)
T1 construct: whole, on cells; also called Dog-iR2-FL-WT-T7
T1 sequence: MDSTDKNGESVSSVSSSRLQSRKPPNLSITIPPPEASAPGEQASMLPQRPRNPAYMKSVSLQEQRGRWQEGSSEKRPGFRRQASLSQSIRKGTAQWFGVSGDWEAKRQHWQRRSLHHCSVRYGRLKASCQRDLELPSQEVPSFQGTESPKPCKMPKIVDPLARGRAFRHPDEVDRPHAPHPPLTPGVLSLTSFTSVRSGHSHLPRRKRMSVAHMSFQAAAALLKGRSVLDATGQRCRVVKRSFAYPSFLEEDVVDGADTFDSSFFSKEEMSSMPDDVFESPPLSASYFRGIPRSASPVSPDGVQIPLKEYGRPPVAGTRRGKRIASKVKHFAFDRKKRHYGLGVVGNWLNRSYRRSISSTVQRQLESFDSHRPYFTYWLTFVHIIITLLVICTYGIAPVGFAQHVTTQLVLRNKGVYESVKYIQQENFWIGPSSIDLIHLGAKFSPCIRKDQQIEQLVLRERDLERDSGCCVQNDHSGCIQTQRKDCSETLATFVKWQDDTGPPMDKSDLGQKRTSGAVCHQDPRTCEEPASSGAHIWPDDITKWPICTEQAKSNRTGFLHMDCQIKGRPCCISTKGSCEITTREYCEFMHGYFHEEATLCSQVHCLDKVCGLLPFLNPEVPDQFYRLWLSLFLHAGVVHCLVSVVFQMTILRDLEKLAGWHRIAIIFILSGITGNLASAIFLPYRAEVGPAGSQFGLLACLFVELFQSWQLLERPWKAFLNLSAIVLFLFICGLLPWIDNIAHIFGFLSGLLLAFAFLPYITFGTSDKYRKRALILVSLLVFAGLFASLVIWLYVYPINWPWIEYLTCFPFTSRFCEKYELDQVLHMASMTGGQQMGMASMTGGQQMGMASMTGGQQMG
Test: FACS on MEF-DKO-iR2 Dog cells, 3 µg/ml
Procedure: In brief, immortalized MEF-DKO-EV control cells, MEF-DKO-rhesus-iR2-FL-WT-T7 cells, MEF-DKO-cyno-iR2-FL-WT-T7 cells, MEF-DKO-dog-iR2-FL-WT-T7 cells and MEF-DKO-rabbit-iR2-FL-WT-T7 cells, as well as their respective iRhom1 counterparts, were harvested with 10 mM EDTA in PBS, washed and resuspended in FACS buffer (PBS, 3% FBS, 0.05% sodium azide), and seeded in Nunc U-bottom 96-well plates (Thermo Fisher Scientific, USA) at approximately 3×10⁵ cells per well. To pellet cells and remove supernatants, the plates were centrifuged at 1,500 rpm and 4° C. for 3 minutes. For primary staining, cells were resuspended in 100 μl per well of either FACS buffer alone (controls), mouse monoclonal anti-T7 IgG (Merck Millipore, USA) at 3 μg/ml FACS buffer or the antibodies of the present disclosure also at 3 μg/ml FACS buffer and incubated on ice for 1 hour. Afterwards, plates were centrifuged at 1,500 rpm and 4° C. for 3 minutes and washed twice with 200 μl per well of FACS buffer. For secondary staining, cells were spun down and resuspended in 100 μl per well of PE-conjugated goat anti-mouse IgG F(ab′)2 detection fragment (Dianova, Germany) diluted 1:100 in FACS buffer. Protected from light, the cell suspensions were incubated on ice for 1 hour. […] Finally, cells were resuspended in 150 μl per well of FACS buffer and analyzed using a BD Accuri™ C6 Plus flow cytometer (Becton Dickinson, Germany).

B1: antibody 16 (antibody, V domains shown)
VH: QVTLKESGPGILQPSQTLSLTCSFSGFSLSTFALGVGWIRQPSGRGLEWLAHIWWDDDKYYNPALKSRLTISKDTSKNHVFLKIANVDTADTATYYCARITTYYYGMDYWGQGTSVTVSS
VL: DIVLSQSPATLSVTPGDSVSLFCRASQSIGNHLHWYQQESHASPRLLIKYASQSISGIPSRFSGSGSGTDFTLSINSVETEDFGMYFCQQSYNWPLTFGAGTKLELK
notes: Mouse IgG, kappa light chain; also called clone #16; m16
binding result: binds
